Reference: patent US20160053277A1, “Compositions Having Dicamba Decarboxylase Activity and Methods of Use” (PIONEER HI-BRED INTERNATIONAL, INC., priority 2013, published 2016)
Changes are numbered by the printed parent chain. Names may count otherwise.

Assay: Saturation mutagenesis of SEQ ID NO:109: dicamba decarboxylation activity of point mutants (carbon dioxide released)
Conditions: for Fold Activity: decarboxylation activity (carbon dioxide released) of point mutant compared with unmutated backbone protein, backbone SEQ ID NO: 109
[1] = dicamba decarboxylation activity of point mutants of SEQ ID NO: 109, relative to unchanged template
[2] = point mutation in SEQ ID NO: 109

B1: D299A: point mutant of SEQ ID NO: 109 (protein)
chain: MAQGKVALEEHFAIPETLQDSAGFVPGDYWKELQHRLLDIQDTRLKLMDAHGIETMILSLNAPAVQAIPDRRKAIEIARRANDVLAEECAKRPDRFLAFAALPLQDPDAATEELQRCVNDLGFVGALVNGFSQEGDGQTPLYYDLPQYRPFWGEVEKLDVPFYLHPRNPLPQDSRIYDGHPWLLGPTWAFAQETAVHALRLMASGLFDEHPRLNIILGHMGEGLPYMMWRIDHRVAWVKLPPRYPAKRRFMDYFNENFHITTSGNFRTQTLIDAILEIGADRILFSTDWPFENIDHASAWFNATSIAEADRVKIGRTNARRLFKLDGA
modifications: Dicamba decarboxylase variant clone: DC.4.032
Q: With B1 as the molecule, how does the “Average Activity (Fold of SEQ ID NO: 109)” value [1] read?
A: The value was 2.0 Fold of SEQ ID NO: 109.

B2: D42M: point mutant of SEQ ID NO: 109 (protein)
chain: B1 chain with D42M, A299D
modifications: Dicamba decarboxylase variant clone: DC.4.032
Q: For B2, which “Average Activity (Fold of SEQ ID NO: 109)” value [1] is on record?
A: Its value is 2.4 Fold of SEQ ID NO: 109.

Q: What about the “Average Activity (Fold of SEQ ID NO: 109)” value [2] of the same molecule?
A: Its value is 2.4 Fold of SEQ ID NO: 109.

B3: G327Q: point mutant of SEQ ID NO: 109 (protein)
chain: B1 chain with A299D, G327Q
modifications: Dicamba decarboxylase variant clone: DC.4.032
Q: Which “Average Activity (Fold of SEQ ID NO: 109)” value [1] does the source give for B3 here?
A: The value was 2.8 Fold of SEQ ID NO: 109.

Q: What about the “Average Activity (Fold of SEQ ID NO: 109)” value [2] of the same molecule?
A: The value was 2.8 Fold of SEQ ID NO: 109.

B4: A328D: point mutant of SEQ ID NO: 109 (protein)
chain: B1 chain with A299D, A328D
modifications: Dicamba decarboxylase variant clone: DC.4.032
Q: For B4, which “Average Activity (Fold of SEQ ID NO: 109)” value [1] is on record?
A: Its value is 2.3 Fold of SEQ ID NO: 109.

Q: And the “Average Activity (Fold of SEQ ID NO: 109)” value [2]?
A: The value was 2.3 Fold of SEQ ID NO: 109.

B5: D42A: point mutant of SEQ ID NO: 109 (protein)
chain: B1 chain with D42A, A299D
modifications: Dicamba decarboxylase variant clone: DC.4.032
Q: For B5, which “Average Activity (Fold of SEQ ID NO: 109)” value [1] is on record?
A: The value was 2.0 Fold of SEQ ID NO: 109.

B6: W30L: point mutant of SEQ ID NO: 109 (protein)
chain: B1 chain with W30L, A299D
modifications: Dicamba decarboxylase variant clone: DC.4.032
Q: For B6, which “Average Activity (Fold of SEQ ID NO: 109)” value [1] is on record?
A: Its value is 1.7 Fold of SEQ ID NO: 109.

Q: What about the “Average Activity (Fold of SEQ ID NO: 109)” value [2] of the same molecule?
A: Its value is 1.7 Fold of SEQ ID NO: 109.

B7: T43C: point mutant of SEQ ID NO: 109 (protein)
chain: B1 chain with T43C, A299D
modifications: Dicamba decarboxylase variant clone: DC.4.032
Q: Which “Average Activity (Fold of SEQ ID NO: 109)” value [1] does the source give for B7 here?
A: The value was 1.7 Fold of SEQ ID NO: 109.

Q: What about the “Average Activity (Fold of SEQ ID NO: 109)” value [2] of the same molecule?
A: The value was 1.7 Fold of SEQ ID NO: 109.

B8: G52E: point mutant of SEQ ID NO: 109 (protein)
chain: B1 chain with G52E, A299D
modifications: Dicamba decarboxylase variant clone: DC.4.032
Q: Which results are given for B8?
A: Average Activity (Fold of SEQ ID NO: 109) [1]: 3.1 Fold of SEQ ID NO: 109; Average Activity (Fold of SEQ ID NO: 109) [2]: 3.1 Fold of SEQ ID NO: 109

B9: D20F: point mutant of SEQ ID NO: 109 (protein)
chain: B1 chain with D20F, A299D
modifications: Dicamba decarboxylase variant clone: DC.4.032
Q: For B9, which “Average Activity (Fold of SEQ ID NO: 109)” value [1] is on record?
A: Its value is 1.9 Fold of SEQ ID NO: 109.

Q: And the “Average Activity (Fold of SEQ ID NO: 109)” value [2]?
A: Its value is 1.9 Fold of SEQ ID NO: 109.

B10: L38I: point mutant of SEQ ID NO: 109 (protein)
chain: B1 chain with L38I, A299D
modifications: Dicamba decarboxylase variant clone: DC.4.032
Q: With B10 as the molecule, how does the “Average Activity (Fold of SEQ ID NO: 109)” value [1] read?
A: Its value is 2.0 Fold of SEQ ID NO: 109.

Q: What about the “Average Activity (Fold of SEQ ID NO: 109)” value [2] of the same molecule?
A: The value was 2.0 Fold of SEQ ID NO: 109.

B11: A328R: point mutant of SEQ ID NO: 109 (protein)
chain: B1 chain with A299D, A328R
modifications: Dicamba decarboxylase variant clone: DC.4.032
Q: Which “Average Activity (Fold of SEQ ID NO: 109)” value [1] does the source give for B11 here?
A: The value was 3.0 Fold of SEQ ID NO: 109.

B12: G27T: point mutant of SEQ ID NO: 109 (protein)
chain: B1 chain with G27T, A299D
modifications: Dicamba decarboxylase variant clone: DC.4.032
Q: With B12 as the molecule, how does the “Average Activity (Fold of SEQ ID NO: 109)” value [1] read?
A: The value was 2.0 Fold of SEQ ID NO: 109.

B13: R321N: point mutant of SEQ ID NO: 109 (protein)
chain: B1 chain with A299D, R321N
modifications: Dicamba decarboxylase variant clone: DC.4.032
Q: For B13, which “Average Activity (Fold of SEQ ID NO: 109)” value [1] is on record?
A: Its value is 1.7 Fold of SEQ ID NO: 109.

Q: What about the “Average Activity (Fold of SEQ ID NO: 109)” value [2] of the same molecule?
A: The value was 1.7 Fold of SEQ ID NO: 109.

B14: A303E: point mutant of SEQ ID NO: 109 (protein)
chain: B1 chain with A299D, A303E
modifications: Dicamba decarboxylase variant clone: DC.4.032
Q: With B14 as the molecule, how does the “Average Activity (Fold of SEQ ID NO: 109)” value [1] read?
A: The value was 2.3 Fold of SEQ ID NO: 109.

B15: N302A: point mutant of SEQ ID NO: 109 (protein)
chain: B1 chain with A299D, N302A
modifications: Dicamba decarboxylase variant clone: DC.4.032
Q: For B15, which “Average Activity (Fold of SEQ ID NO: 109)” value [1] is on record?
A: Its value is 1.9 Fold of SEQ ID NO: 109.

Q: And the “Average Activity (Fold of SEQ ID NO: 109)” value [2]?
A: Its value is 1.9 Fold of SEQ ID NO: 109.

B16: A50K: point mutant of SEQ ID NO: 109 (protein)
chain: B1 chain with A50K, A299D
modifications: Dicamba decarboxylase variant clone: DC.4.032
Q: Which “Average Activity (Fold of SEQ ID NO: 109)” value [1] does the source give for B16 here?
A: The value was 1.9 Fold of SEQ ID NO: 109.

Q: What about the “Average Activity (Fold of SEQ ID NO: 109)” value [2] of the same molecule?
A: Its value is 1.9 Fold of SEQ ID NO: 109.

B17: G27S: point mutant of SEQ ID NO: 109 (protein)
chain: B1 chain with G27S, A299D
modifications: Dicamba decarboxylase variant clone: DC.4.032
Q: With B17 as the molecule, how does the “Average Activity (Fold of SEQ ID NO: 109)” value [1] read?
A: The value was 2.2 Fold of SEQ ID NO: 109.

Q: And the “Average Activity (Fold of SEQ ID NO: 109)” value [2]?
A: Its value is 2.2 Fold of SEQ ID NO: 109.

B18: D42S: point mutant of SEQ ID NO: 109 (protein)
chain: B1 chain with D42S, A299D
modifications: Dicamba decarboxylase variant clone: DC.4.032
Q: With B18 as the molecule, how does the “Average Activity (Fold of SEQ ID NO: 109)” value [1] read?
A: Its value is 2.0 Fold of SEQ ID NO: 109.

B19: G27A: point mutant of SEQ ID NO: 109 (protein)
chain: B1 chain with G27A, A299D
modifications: Dicamba decarboxylase variant clone: DC.4.032
Q: Which “Average Activity (Fold of SEQ ID NO: 109)” value [1] does the source give for B19 here?
A: The value was 2.0 Fold of SEQ ID NO: 109.

B20: 132 (protein)
chain: SLLRFSAVSRHHRGASIDPMTFSEATTPDALTPDAHTPRLLTCDVLYTGMGGAQSPGGVVVVGETVAAAGHPDELRRQYPHAAEERAGAVIAPPPVNAHTHLDMSAYEFQALPYFQWIPEVVIRGRHLRGVAAAQAGADTLTRLGAGGVGDIVWAPEVMDALLAREDLSGTLYFEVLNPFPDKADEVFAAARTHLERWRRLERPGLRLGLSPHTPFTVSHRLMRLLSDYAAGEGLPLQIHVAEHPTELEMFRTGGGPLWDNRMPALYPHTLAEVIGREPGPDLTPVRYLDELGVLAARPTLVHMVNVTPDDIARVARAGCAVVTCPRSNHHLECGTFDWPAFAAAGVEVALGTDSVASGETLNVREEVTFARQLYPGLDPRVLVRAAVKGGQRVVGGRTPFLRRGETWQEGFRWELSRDL
modifications: Deinococcus Radiodurans
Q: With B20 as the molecule, how does the “Fold Activity” value read?
A: Its value is 1.6.

B21: 130 (protein)
chain: MGSSHHHHHHSSGRENLYFQGMKSITFEEHYVIEDIQKETMNAISADPKGVPMKVMLEGLEKKTGFTNADELSHHDERIQFMNNQDVQIQVLSYGNGSPSNLVGQKAIELCQKANDQLANYIAQYPNRFVGFATLPINEPEAAAREFERCINDLGFKGALIMGRAQDGFLDQDKYDIIFKTAENLDVPIYLHPAPVNSDIYQSYYKGNYPEVTAATFACFGYGWHIDVGIHAIHLVLSGIFDRYPKLNMIIGHWGEFIPFFLERMDEALFAEHLNHSVSYYFKNSFYITPSGMLTKPQFDLVKKEVGIDRILYAADYPYIEPEKLGVFLDELGLTDEEKEKISYTNGAKLLGLSSNN
modifications: Staphylococcus Aureus
Q: Which “Fold Activity” value does the source give for B21 here?
A: Its value is 1.2.

B22: 131 (protein)
chain: MSLTKIDAYAHILPAKYYQKMLSVEPNIPNMFPFIKIKTLMDLDERLTKWPDQNTKQVISLANISPEDFTDSKTSAELCQSANEELSNLVDQHPGKFAGAVAILPMNNIESACKVISSIKDDENLVGAQIFTRHLGKSIADKEFRPVLAQAAKLHVPLWMHPVFDARKPDNNLVFSWEYELSQAMLQLVQSDLFQDYPNLKILVHHAGAMVPFFSGRIDHILDEKHAQDFKKFYVDTAILGNTPALQLAIDYYGIDHVLFGTDAPFAVMPSGADQIITQAINDLTISDKDKQKIFHDNYYSLIKEGHHHHHH
modifications: Lactobacillus Acidophilus
Q: With B22 as the molecule, how does the “Fold Activity” value read?
A: The value was 1.6.
